This data set is described as follows: in vivo. The following applies: BALB/c nude, mouse, in vivo, iv, total radioactivity. As to the method:
To a 0.5 M NaOAc buffer (20-50 μL, pH=4.5) was added 4 μL of exemplary or comparator compound in DMSO stock solution (2000 μM) and 2 mCi ^177Lu (ITM Isotope Technologies Munich), the resulting mixture was heated to 95° C. for 15 min. The resulting product was analyzed by radio-TLC and radio-HPLC (column: Shim-pack GIST 5 μm 4.6*150 mm; buffer A: 0.2% formic acid H2O; buffer B: 0.1% formic acid acetonitrile; flow rate: 1 mL/min; gradient: 0-5 min: 10% B to 95% B; then 5-8 min: 95% B). The labelled products were used immediately or diluted by a PBS buffer containing freshly added 3 mg/mL ascorbate.
All animal care and experimental procedure were performed by following the animal protocols approved by the ethics committee of China Institute of Radiation Protection. The BALB/c nude mice (Charles River, Beijing) were utilized for these studies. Mice were below 5 per cage in sterile, microisolator cages under temperature- and humidity-controlled conditions with a 12 h light/12 h dark schedule and fed irradiated rodent chow and reverse osmosis (RO) sterile water ad libitum. In preparation for tumor cell inoculations, mice were anesthetized with isoflurane (RWD Life Science Inc.) at an induction rate of 4% and maintained at a rate of 2.5% with 0.4 L oxygen delivered via precision vaporizer and a non-rebreathing apparatus. These mice received subcutaneous rear flank injections of approximately 4×10^6 AR42J cells ([…] pancreatic cancer cell line) suspended in 200 μL of phosphate-buffered saline (PBS) and Matrigel (Corning) (1/1). Xenografted tumors were allowed to grow for ~2-4 weeks post-inoculation and ranged in mass from 0.05 to 0.50 g (average tumor size, 0.20 g). […] The mice were euthanized, and the tissues and organs were excised from the animals at 4, 24 and 72 h post-injection. The tissues and organs were weighed, counted in a PerkinElmer 2480 WIZARD2 γ counter, and the percent injected dose (% ID) and % ID/g of each organ or tissue were calculated.

*1 amine or outer side, *2 acyl side, *3 side chain or, on linkers, in order; H or OH if unused. Where a SMILES comes first, the peptide text is derived from it. Bridges are numbered along the chain shown (N, C = ends). Side-chain parts run from the residue outwards. [ ]: non-standard residue; d: D form. The star is where a group is joined. X1 = CC(C)(C)C(=O)CN1C(=O)[C@H](N*)CN(C2CCCCC2)c2ccccc21; DOTA = O=C(O)CN1CCN(CC(=O)O)CCN(CC(=O)*)CCN(CC(=O)O)CC1; 3Abz = Nc1cccc(C(=O)O)c1; CO = O=C([*:1])[*:2]

Broadly, the tissue uptake is the percentage of the injected dose found per gram of tissue. Take `C[C@@H](O)[C@H](NC(=O)[C@@H]1CSSC[C@H](NC(=O)[C@@H](Cc2ccccc2)NC(=O)COCCOCCNC(=O)[C@H](CCCCNC(=O)c2cccc(NC(=O)N[C@@H]3CN(C4CCCCC4)c4ccccc4N(CC(=O)C(C)(C)C)C3=O)c2)NC(=O)COCCOCCNC(=O)CN2CCN(CC(=O)O)CCN(CC(=O)O)CCN(CC(=O)O)CC2)C(=O)N[C@@H](Cc2ccc(O)cc2)C(=O)N[C@H](Cc2c[nH]c3ccccc23)C(=O)N[C@@H](CCCCN)C(=O)N[C@@H]([C@@H](C)O)C(=O)N1)C(=O)O` [Compound I-52, DOTA-OEG-K(Z360)-OEG-f[CYwKTC]T-OH]: the tissue to tissue ratio at 24 h is, setting by setting: (T/K Tumor/Kidney ratio) 0.9; (T/L Tumor/Liver ratio) 2.2; (T/P Tumor/Pancreas ratio) 14; (T/Sp Tumor/Spleen ratio) 36; (T/St Tumor/Stomach ratio) 2.4. Moreover, the tissue uptake at 24 h (uptake Kidney) amounted to 14 %ID/g; the tissue uptake at 24 h (uptake Liver) is 5.7 %ID/g; the tissue uptake at 24 h (uptake Pancreas) was determined as 0.9 %ID/g; the tissue uptake at 24 h (uptake Spleen) amounted to 0.3 %ID/g; the tissue uptake at 24 h (uptake Stomach) was 5.1 %ID/g; the tissue uptake at 24 h (uptake Tumor) turned out to be 12.4 %ID/g.
As for `C[C@@H](O)[C@H](NC(=O)[C@@H]1CSSC[C@H](NC(=O)[C@@H](Cc2ccccc2)NC(=O)CNC(=O)COCCOCCNC(=O)[C@H](CCCCNC(=O)c2cccc(NC(=O)N[C@@H]3CN(C4CCCCC4)c4ccccc4N(CC(=O)C(C)(C)C)C3=O)c2)NC(=O)CN2CCN(CC(=O)O)CCN(CC(=O)O)CCN(CC(=O)O)CC2)C(=O)N[C@@H](Cc2ccc(O)cc2)C(=O)N[C@H](Cc2c[nH]c3ccccc23)C(=O)N[C@@H](CCCCN)C(=O)N[C@@H]([C@@H](C)O)C(=O)N1)C(=O)O` [Compound I-53, DOTA-K(Z360)-OEG-G-f[CYwKTC]T-OH], the tissue to tissue ratio at 24 h was determined as 2.3 (T/K Tumor/Kidney ratio); 6.3 (T/L Tumor/Liver ratio); 18 (T/P Tumor/Pancreas ratio); 52 (T/Sp Tumor/Spleen ratio); 4.8 (T/St Tumor/Stomach ratio). Also, the tissue uptake at 24 h reads like this: (uptake Kidney) 7.15 %ID/g; (uptake Liver) 2.57 %ID/g; (uptake Pancreas) 0.91 %ID/g; (uptake Spleen) 0.31 %ID/g; (uptake Stomach) 3.36 %ID/g; (uptake Tumor) 16.2 %ID/g.
Take `C[C@@H](O)[C@H](NC(=O)[C@@H]1CSSC[C@H](NC(=O)[C@@H](Cc2ccccc2)NC(=O)CNC(=O)[C@H](CO)NC(=O)CNC(=O)[C@H](CCCCNC(=O)c2cccc(NC(=O)N[C@@H]3CN(C4CCCCC4)c4ccccc4N(CC(=O)C(C)(C)C)C3=O)c2)NC(=O)CN2CCN(CC(=O)O)CCN(CC(=O)O)CCN(CC(=O)O)CC2)C(=O)N[C@@H](Cc2ccc(O)cc2)C(=O)N[C@H](Cc2c[nH]c3ccccc23)C(=O)N[C@@H](CCCCN)C(=O)N[C@@H]([C@@H](C)O)C(=O)N1)C(=O)O` [Compound I-54, DOTA-K(Z360)-G-S-G-f[CYwKTC]T-OH] ({DOTA}-K([3Abz-CO-X1])GSG[dF]CY[dW]KTCT-OH; disulfide 6-11): the tissue to tissue ratio at 24 h was 2.4 (T/K Tumor/Kidney ratio); 2.7 (T/L Tumor/Liver ratio); 9.7 (T/P Tumor/Pancreas ratio); 36 (T/Sp Tumor/Spleen ratio); 6.3 (T/St Tumor/Stomach ratio). Also, the tissue uptake at 24 h is 10.5 %ID/g (uptake Kidney); 9.6 %ID/g (uptake Liver); 2.65 %ID/g (uptake Pancreas); 0.71 %ID/g (uptake Spleen); 4.1 %ID/g (uptake Stomach); 25.8 %ID/g (uptake Tumor).
With `C[C@@H](O)[C@H](NC(=O)[C@@H]1CSSC[C@H](NC(=O)[C@@H](Cc2ccccc2)NC(=O)CNC(=O)[C@H]2CCCN2C(=O)CNC(=O)[C@H]2CCCN2C(=O)CNC(=O)[C@H](CCCCNC(=O)c2cccc(NC(=O)N[C@@H]3CN(C4CCCCC4)c4ccccc4N(CC(=O)C(C)(C)C)C3=O)c2)NC(=O)CN2CCN(CC(=O)O)CCN(CC(=O)O)CCN(CC(=O)O)CC2)C(=O)N[C@@H](Cc2ccc(O)cc2)C(=O)N[C@H](Cc2c[nH]c3ccccc23)C(=O)N[C@@H](CCCCN)C(=O)N[C@@H]([C@@H](C)O)C(=O)N1)C(=O)O` [Compound I-55, DOTA-K(Z360)-G-p-G-p-G-f[CYwKTC]T-OH] ({DOTA}-K([3Abz-CO-X1])G[dP]G[dP]G[dF]CY[dW]KTCT-OH; disulfide 8-13), the tissue to tissue ratio at 24 h (T/K Tumor/Kidney ratio) was found to be 1.1; the tissue to tissue ratio at 24 h (T/L Tumor/Liver ratio) amounted to 2.5; the tissue to tissue ratio at 24 h (T/P Tumor/Pancreas ratio) came out at 14; the tissue to tissue ratio at 24 h (T/Sp Tumor/Spleen ratio) is 34; the tissue to tissue ratio at 24 h (T/St Tumor/Stomach ratio) amounted to 7.3. The tissue uptake at 24 h runs as follows: (uptake Kidney) 20.8 %ID/g; (uptake Liver) 9.21 %ID/g; (uptake Pancreas) 1.66 %ID/g; (uptake Spleen) 0.67 %ID/g; (uptake Stomach) 3.13 %ID/g; (uptake Tumor) 23 %ID/g.
In the case of `C[C@@H](O)[C@H](NC(=O)[C@@H]1CSSC[C@H](NC(=O)[C@@H](Cc2ccccc2)NC(=O)CCCCCCCNC(=O)[C@H](CCCCNC(=O)c2cccc(NC(=O)N[C@@H]3CN(C4CCCCC4)c4ccccc4N(CC(=O)C(C)(C)C)C3=O)c2)NC(=O)CN2CCN(CC(=O)O)CCN(CC(=O)O)CCN(CC(=O)O)CC2)C(=O)N[C@@H](Cc2ccc(O)cc2)C(=O)N[C@H](Cc2c[nH]c3ccccc23)C(=O)N[C@@H](CCCCN)C(=O)N[C@@H]([C@@H](C)O)C(=O)N1)C(=O)O` [Compound I-61, DOTA-K(Z360)-Aoc-f[CYwKTC]T-OH], the tissue to tissue ratio at 24 h is, setting by setting: (T/K Tumor/Kidney ratio) 3.5; (T/L Tumor/Liver ratio) 0.1; (T/P Tumor/Pancreas ratio) 16; (T/Sp Tumor/Spleen ratio) 0.2; (T/St Tumor/Stomach ratio) 4.5. The tissue uptake at 24 h (uptake Kidney) was 1.53 %ID/g; the tissue uptake at 24 h (uptake Liver) is 53.3 %ID/g; the tissue uptake at 24 h (uptake Pancreas) was found to be 0.34 %ID/g; the tissue uptake at 24 h (uptake Spleen) turned out to be 28.3 %ID/g; the tissue uptake at 24 h (uptake Stomach) was found to be 1.21 %ID/g; the tissue uptake at 24 h (uptake Tumor) is 5.41 %ID/g.
Regarding `C[C@@H](O)[C@H](NC(=O)[C@@H]1CSSC[C@H](NC(=O)[C@@H](Cc2ccccc2)NC(=O)[C@H](CCCCNC(=O)c2cccc(NC(=O)N[C@@H]3CN(C4CCCCC4)c4ccccc4N(CC(=O)C(C)(C)C)C3=O)c2)NC(=O)[C@H](CCCNC(=N)N)NC(=O)CN2CCN(CC(=O)O)CCN(CC(=O)O)CCN(CC(=O)O)CC2)C(=O)N[C@@H](Cc2ccc(O)cc2)C(=O)N[C@H](Cc2c[nH]c3ccccc23)C(=O)N[C@@H](CCCCN)C(=O)N[C@@H]([C@@H](C)O)C(=O)N1)C(=O)O` [Compound I-62, DOTA-R-K(Z360)-f[CYwKTC]T-OH] ({DOTA}-RK([3Abz-CO-X1])[dF]CY[dW]KTCT-OH; disulfide 4-9), the tissue to tissue ratio at 24 h runs as follows: (T/K Tumor/Kidney ratio) 0.7; (T/L Tumor/Liver ratio) 0.3; (T/P Tumor/Pancreas ratio) 6.1; (T/Sp Tumor/Spleen ratio) 13; (T/St Tumor/Stomach ratio) 6.4. In addition, the tissue uptake at 24 h was 14.7 %ID/g (uptake Kidney); 32.4 %ID/g (uptake Liver); 1.78 %ID/g (uptake Pancreas); 0.82 %ID/g (uptake Spleen); 1.68 %ID/g (uptake Stomach); 10.8 %ID/g (uptake Tumor).

The record behind these values is patent US20260248972A1, “DUAL RECEPTOR TARGETING RADIOLIGANDS AND USES THEREOF RELATED APPLICATIONS” (priority 2022, published 2026).
